In patent US11174322B2, “Antibodies and peptides to treat HCMV related diseases” (priority 2017, dated 2021):

B1: 3xHA-pUL56: full-length amino-terminal 3xHA-tagged pUL56, HCMV large terminase subunit, purified from transfected HEK293 (protein)
chain: MEMNLLQKLCVVCSKCNEYAMELECLKYCDPNVLLAESTPFKRNAAAIVYLYRKIYPEVVAQNRTQSSLLTLYLEMLLKALHEDTALLDRALMAYSRQPDRAAFYRTVLRLDRCDRHHTVELQFTDNVRFSVSLATLNDIERFLCKMNYVYGILAPEAGLEVCAQLLELLRRLCGISPVARQEVYVEGTTCAQCYEELTIIPNQGRSLNKRLQGLLCNHIAVHRPSSQSDVNIQTVEQDLLDLTTRIPHLAGVLSALKSLFSSSSAYHSYIQEAEEALREYNLFTDIPERIYSLSDFTYWSRTSEVIVKRVGITIQQLNVYHQLCRALMNGISRHLYGEDVEDIFVLGEKALDGEERMFVGSVFAAPNRIIDLITSLSIQAFEDNPVFNKLHESNEMYTKIKHILEEIRRPLPDGTGGDGPEGEAIHLRGREAMSGTGTTLMTASNSSNSSTHSQRNNGGGGRARGGGKKAVGGGANGQDGDGSENGLRVRNCDEHEALDLVDARSRIHNVTREVNVRKRAYLQKVSEVGYGKVIRCIKTQERLTSKLIDVNLVGPLCLDFISKLMNGFLYRSQYHQDQDVVDVGDQFTYDEHLYVVNNLIHKSLPVESLPLLGQQIYELCNGPLFTHCTDRYPLSHNVDMAYACDNAGVLPHVKDDLVKCAEGTVYPSEWMVVKYMGFFNFSDCQDLNVLQKEMWMHVRELVLSVALYNETFGKQLSIACLRDELHPDRDVILTYNKEWPLLLRHEGNLYKSKDLYLLLYRHLSRPDESGDVPTAPVAKPSTLTAAAAVSGAFREPDRPWLPSPYPSSSTAGVSRRVRATRKRPRRASSLLDLARDEHGIQDLVPGSLR
modifications: left off: small tags and cut ends
notes: full-length amino-terminal 3xHA-tagged pUL56, HCMV large terminase subunit, purified from transfected HEK293
B2: pUL56 depleted of its W671-F680 fragment (protein)
chain: MEMNLLQKLCVVCSKCNEYAMELECLKYCDPNVLLAESTPFKRNAAAIVYLYRKIYPEVVAQNRTQSSLLTLYLEMLLKALHEDTALLDRALMAYSRQPDRAAFYRTVLRLDRCDRHHTVELQFTDNVRFSVSLATLNDIERFLCKMNYVYGILAPEAGLEVCAQLLELLRRLCGISPVARQEVYVEGTTCAQCYEELTIIPNQGRSLNKRLQGLLCNHIAVHRPSSQSDVNIQTVEQDLLDLTTRIPHLAGVLSALKSLFSSSSAYHSYIQEAEEALREYNLFTDIPERIYSLSDFTYWSRTSEVIVKRVGITIQQLNVYHQLCRALMNGISRHLYGEDVEDIFVLGEKALDGEERMFVGSVFAAPNRIIDLITSLSIQAFEDNPVFNKLHESNEMYTKIKHILEEIRRPLPDGTGGDGPEGEAIHLRGREAMSGTGTTLMTASNSSNSSTHSQRNNGGGGRARGGGKKAVGGGANGQDGDGSENGLRVRNCDEHEALDLVDARSRIHNVTREVNVRKRAYLQKVSEVGYGKVIRCIKTQERLTSKLIDVNLVGPLCLDFISKLMNGFLYRSQYHQDQDVVDVGDQFTYDEHLYVVNNLIHKSLPVESLPLLGQQIYELCNGPLFTHCTDRYPLSHNVDMAYACDNAGVLPHVKDDLVKCAEGTVYPSENFSDCQDLNVLQKEMWMHVRELVLSVALYNETFGKQLSIACLRDELHPDRDVILTYNKEWPLLLRHEGNLYKSKDLYLLLYRHLSRPDESGDVPTAPVAKPSTLTAAAAVSGAFREPDRPWLPSPYPSSSTAGVSRRVRATRKRPRRASSLLDLARDEHGIQDLVPGSLR
modifications: left off: small tags and cut ends

Biological target: T1, full-length pUL89 (His-pUL89) (Human cytomegalovirus, UniProt P16732)
T1 construct: made in house; host or cells: HEK293
T1 sequence (P16732 whole entry): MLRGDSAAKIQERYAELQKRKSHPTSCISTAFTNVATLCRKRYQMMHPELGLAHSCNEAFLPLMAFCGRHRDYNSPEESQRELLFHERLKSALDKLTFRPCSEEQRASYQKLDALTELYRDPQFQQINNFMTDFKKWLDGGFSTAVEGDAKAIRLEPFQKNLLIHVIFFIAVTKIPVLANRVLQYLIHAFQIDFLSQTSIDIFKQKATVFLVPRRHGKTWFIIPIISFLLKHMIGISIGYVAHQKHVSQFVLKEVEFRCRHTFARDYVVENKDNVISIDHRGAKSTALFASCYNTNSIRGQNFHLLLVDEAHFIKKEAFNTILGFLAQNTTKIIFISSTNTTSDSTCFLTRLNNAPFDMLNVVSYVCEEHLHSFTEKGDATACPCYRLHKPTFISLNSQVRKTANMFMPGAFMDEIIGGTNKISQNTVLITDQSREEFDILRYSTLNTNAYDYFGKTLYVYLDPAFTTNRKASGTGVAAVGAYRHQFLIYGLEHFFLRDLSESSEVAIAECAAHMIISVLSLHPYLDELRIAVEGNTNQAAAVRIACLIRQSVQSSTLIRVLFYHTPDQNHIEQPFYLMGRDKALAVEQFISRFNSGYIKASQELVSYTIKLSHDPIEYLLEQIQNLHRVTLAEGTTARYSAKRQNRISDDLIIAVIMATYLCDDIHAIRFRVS
Assay: Alpha assay (Amplified Luminescent Proximity Homogeneous Assay) of the pUL56/pUL89 protein-protein interaction
Type: binding, human cytomegalovirus (HCMV), AD169
Protocol: FIG. 2: Determination of pUL56 binding domains for the interaction with pUL89 Alpha assay results. The Alpha assay for the binding of full-length pUL89 (His-pUL89, 1.5E+03 nM) was performed with 5E+02 nM wild-type pUL56 (HA-pUL56) or a deletion mutant of pUL56 (HA-pUL56 Del W671-F680). As a negative control, proteins were used alone and a reaction was performed without proteins (mock). Two measures for each reaction were performed in duplicate.
Alpha (Amplified Luminescent Proximity Homogeneous Assay) experiments were conducted according to the manufacturer's protocol (PerkinElmer, USA). Five μL of transfected MRC-5 lysate with HCMV-BAC is first disposed in wells of a 96-well AlphaPlate. The final concentration of each proteins was optimized to obtain the best value of interaction. Ten μL of each purified protein were combined (to give a final assay concentration of 500 nM of 3xHA-pUL56 and 1.5 μM of 6xHis-pUL89). Ten μL and 15 μL of 10 mg/mL of donor beads and acceptor beads, respectively, were added and incubated for 1 hour. Plates were read on a PerkinElmer EnVision™ plate reader using an excitation wavelength of 680 nm and emission detection was set at 615 nm.
HEK293 were transfected with SC784 and pCI-neo His-89 expression plasmids and protein-protein interactions were carried out by the Alpha assay. This technology represents a powerful method to highlight protein-protein interactions (Ullman et al., 1994) (Waller et al., 2010). […]
Alpha assay needs both acceptor and donor beads. […] In the absence of a specific biological interaction between proteins, singlet molecules produced by the Donor bead cannot be detected beyond 200 nm from the Acceptor bead (data not shown). […] Alpha assays with 3xHA-pUL56 and 6xHis-pUL89 results in the production of over 9,000 relative light units (RLU), over two-fold more than negative controls (3xHA-pUL56 or His-pUL89) (FIG. 2). pUL56 depleted of its W671-F680 fragment was in turn soaked with pUL89-WT and their affinity assessed by Alpha analysis. […]

Molecule | Alpha assay signal relative to negative controls (3xHA-pUL56 or His-pUL89 alone) (500 nM 3xHA-pUL56 with 1.5 μM 6xHis-pUL89) | Alpha assay signal (light production at 615 nm) (500 nM 3xHA-pUL56 with 1.5 μM 6xHis-pUL89, purified proteins from HEK293) | decrease of the interaction signal with pUL89-WT (pUL56 deletion mutant versus wild-type pUL56, FIG. 2)
B1 | over two-fold | over 9,000 relative light units (RLU) | –
B2 | – | – | 50%
